# Assay results: patent publication US20110189209A1 (GOVERNMENT OF THE UNITED STATES OF AMERICA AS REPRESENTED …, published 2011)
# B1: scFv(C207) (scFv)
# scFv: DFVMSQSPSSLAVSVGERVTMSCKSSQSLLYFSNRKNYLAWYQQKPGQSPKLLINWASTRESGVPDRFTGSGSRTDFTLTISSVKAEDLAVYFCQQFYSYPPTFGGGTKLEIKGGGGSGGGGSGGGGSQVQLQQSEAELARPGASVKMSCKASGYTFTDYTIHWLRQKPGQGLDWIGYFNPSSGSTEYNRKFKDRTILTADRSSTTVYMQLSSLTSEDSAVYYCARKGEKLLGNRYWYFDVWGAGTSVTVSS
# B2: Db(C207) (other)
# chain: DFVMSQSPSSLAVSVGERVTMSCKSSQSLLYFSNRKNYLAWYQQKPGQSPKLLINWASTRESGVPDRFTGSGSRTDFTLTISSVKAEDLAVYFCQQFYSYPPTFGGGTKLEIKGGGGSQVQLQQSEAELARPGASVKMSCKASGYTFTDYTIHWLRQKPGQGLDWIGYFNPSSGSTEYNRKFKDRTILTADRSSTTVYMQLSSLTSEDSAVYYCARKGEKLLGNRYWYFDVWGAGTSVTVSS
# notes: also called diabody of C207; diabody (C207)
# B3: biscFv(C207) (other)
# chain: DFVMSQSPSSLAVSVGERVTMSCKSSQSLLYFSNRKNYLAWYQQKPGQSPKLLINWASTRESGVPDRFTGSGSRTDFTLTISSVKAEDLAVYFCQQFYSYPPTFGGGTKLEIKGGGGSGGGGSGGGGSQVQLQQSEAELARPGASVKMSCKASGYTFTDYTIHWLRQKPGQGLDWIGYFNPSSGSTEYNRKFKDRTILTADRSSTTVYMQLSSLTSEDSAVYYCARKGEKLLGNRYWYFDVWGAGTSVTVSSGGGGSGGGGSGGGGSDFVMSQSPSSLAVSVGERVTMSCKSSQSLLYFSNRKNYLAWYQQKPGQSPKLLINWASTRESGVPDRFTGSGSRTDFTLTISSVKAEDLAVYFCQQFYSYPPTFGGGTKLEIKGGGGSGGGGSGGGGSQVQLQQSEAELARPGASVKMSCKASGYTFTDYTIHWLRQKPGQGLDWIGYFNPSSGSTEYNRKFKDRTILTADRSSTTVYMQLSSLTSEDSAVYYCARKGEKLLGNRYWYFDVWGAGTSVTVSS
# Key:
# [1] = biological target: human CD3 on Jurkat cells (human) (UniProt P07766); assay: competitive binding on Jurkat cells, competitor at 100 nM, tracer 125I-UCHT1
# [2] = biological target: human CD3 on Jurkat cells (human) (UniProt P07766); assay: competitive binding on Jurkat cells, competitor at 1 nM, tracer 125I-UCHT1
# [3] = biological target: T1, monkey CD3 on HSC-F monkey T cells (cynomolgus monkey, UniProt Q95LI5 22-198); assay: competition with FITC-labeled FN18 tracer (5x10^-9 M) for binding to HSC-F monkey T cells, flow cytometry, 4 C
# T1 construct: whole, on cells; also called monkey CD3ε
# [4] = biological target: T1, monkey CD3 on HSC-F monkey T cells; assay: competition with FN18-FITC on HSC-F cells, flow cytometry, replicate assays
# T1 sequence (Q95LI5 22-198): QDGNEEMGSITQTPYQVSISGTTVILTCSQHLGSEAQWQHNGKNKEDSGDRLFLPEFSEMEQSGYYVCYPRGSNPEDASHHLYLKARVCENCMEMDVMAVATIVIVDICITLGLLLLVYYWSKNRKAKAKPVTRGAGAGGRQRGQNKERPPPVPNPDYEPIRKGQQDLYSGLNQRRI
Molecule,% of 125I-UCHT1 bound to Jurkat cells [1],% of 125I-UCHT1 bound to Jurkat cells [2],also measured
UCHT1 (antibody),0%,80%,
scUCHT1 (from UniProt P01871 106-453) (Fc fusion),0%,80%,
B1,,,IC50 (read off the curve) [3]: ~2 nM
B2,,,"ratio of concentrations at equal displacement, Db(C207)/scFv(C207) [4]: 7 fold"
B3,,,"ratio of concentrations at equal displacement, biscFv(C207)/scFv(C207) [4]: 2.5 fold"
